Source: patent US20110027291A1, “METHODS, SYSTEMS AND PRODUCTS FOR PREDICTING RESPONSE OF TUMOR CELLS TO A THERAPEUTIC AGENT AND TREATING A PATIENT ACCORDING TO THE PREDICTED RESPONSE” (MERRIMACK PHARMACEUTICALS, INC., priority 2008, published 2011)
Each block holds one molecule with its values, some of them ahead of it.

Key:
[1] = target: T1, ErbB1 phosphorylation (pErbB1) in NCI-ADRr cells (Homo sapiens, UniProt P00533); assay: ErbB1 phosphorylation dose response curves for ErbB ligands (ELISA); format: cell-based
T1 construct: endogenous in cells; host or cells: NCI-ADRr (ADRr) cells
Method: (§1) For stimulation of the cells, the cells are seeded in 100 μl complete media at 35,000 cells per well in 96 well tissue culture plates and incubated overnight in a humidified atmosphere of 5% CO2, 95% air and 37 degrees Celsius. Cells are then switched to serum free media: RPMI-1640 media (Gibco) supplemented with, 2 mM L-glutamine (Gibco) and units/mL Pen-Strep (Gibco). Starved cells are incubated in a humidified atmosphere of 5% CO2, 95% air and 37 degrees Celsius for 20-24 hours prior to stimulation.
(§2) Levels of protein phosphorylation in the stimulated cells are measured by ELISA. Capture antibodies against ErbB1 (R&D Systems, AF231), ErbB2 (R&D Systems, MAB1129), ErbB3 (R&D Systems, MAB3481) and AKT (Upstate, 05-591MG) are incubated in 384 well black flat-bottom polystyrene high-binding plates (Corning, Catalog #3708) overnight at room temperature. The ELISA plates are blocked with 2% bovine serum albumin (BSA) and phosphate buffered saline (PBS) for one hour then incubated with lysates diluted in 2% BSA, 0.1% Tween-20 and PBS for two hours at room temp. In between each incubation, the plates are washed three times with 0.05% Tween-20 in PBS. ELISAs for measuring phospho-ErbB1, -ErbB2 and -ErbB3 are incubated with phospho-tyrosine horseradish peroxidase (HRP) linked monoclonal antibody (R&D Systems, HAM 1676) for two hours. ELISAs measuring phospho-AKT are incubated with primary serine 473 specific anti-phospho AKT mouse monoclonal antibody (Cell Signaling Technologies, Catalog #5102) for 2 hours, then incubated with Streptavidin-HRP(R&D Systems, Catalog #DY998) for 30 minutes. All ELISAs are visualized with SuperSignal ELISA Pico Chemiluminescent Substrate (Pierce, Catalog #37069) and luminescent signal is measured using a luminometer.

[2] = system: ErbB3 phosphorylation (pErbB3) in NCI-ADRr cells; assay: ErbB3 phosphorylation dose response curves for ErbB ligands (ELISA); format: cell-based
Method: as §1, §2

[3] = system: ErbB2 phosphorylation (pErbB2) in NCI-ADRr cells; assay: ErbB2 phosphorylation dose response curves for ErbB ligands (ELISA); format: cell-based
Method: as §1, §2

[4] = system: AKT phosphorylation (pAKT) in NCI-ADRr cells; assay: AKT phosphorylation dose response curves for ErbB ligands (ELISA); format: cell-based
Method: as §1, §2

[5] = target: ErbB1 on NCI-ADRr cells (UniProt P00533); assay: cell-based or functional assay
[6] = target: ErbB1 (Homo sapiens, UniProt P00533); assay: ErbB signaling computational model: BTC ligand binding parameters; settings: model parameter
Source text: (§3) The ErbB receptor signaling network model consists of three receptors (ErbB1, ErbB2, ErbB3), a receptor phosphatase, phosphatidylinositol 3-kinase (PI3K, which binds the receptors) and components of the PI3K-AKT cascade (phosphatidylinositol bisphosphate, PIP2, phosphoinositide-dependent protein kinase, PDK1, PTEN deleted from chromosome 10, PTEN, serine, threonine protein kinase also known as protein kinase B, AKT, Protein phosphatase 2A, PP2A) (see Table 8 below).
(§4) Included in the model were the ligand-induced dimerization, internalization, recycling, and degradation as described in the literature for all homo- and heterodimers (Hendriks, B. S. et al. (2003) J. Biol. Chem. 278:23343-23351; Wang, Z. et al. (1999) Mol. Biol. Cell 10:1621-1636). Receptor dimer stabilities, using the relative scale as published in Shankaran, H. et al. (2008) Biochem. Biophys. Res. Commun. 371:220-224, were implemented, where the coexpression of […] biases signaling to the cell surface and retards signal downregulation and where the simultaneous coexpression of ErbB1-3 leads to an abundance of ErbB2-ErbB3 heterodimers. Therefore, ErbB3-containing dimers internalize and degrade slower than do ErbB1 homodimers or ErbB1-ErbB2 heterodimers. Constitutive dimerization was also included, although ligand-free dimers were assumed not to trigger any downstream signaling (Yu, X. et al. (2002) Mol. Biol. Cell 13:2547-2557) and to remain at the cell surface. ErbB ligands bind with different affinities to ErbB homo- and heterodimers (Teramura, Y. et al. (2006) EMBO J. 25:4215-4222), but to reduce the number of kinetic parameters to be estimated and to describe the experimental data with the simplest model possible, we constrained the binding affinity of the ligands to ErbB homo- and heterodimers to be the same.
(§5) Many of the reaction rate parameters are unknown in the cell system we studied and therefore had to be estimated (see Table 10 below). To avoid biasing the starting point, all parameters were set to default values (Aldridge, B. B. et al. (2006) Nat. Cell. Biol. 8:1195-1203). The number of parameters estimated was limited by performing the estimation in two stages: first the model was calibrated against the experimentally observed ErbB receptor phosphorylation data; second, the parameters sensitive to AKT phosphorylation were optimized against the experimental data. Estimated values were only accepted if the parameters were constrained under multiple parameter runs using a genetic algorithm with a population size of 50 and 25 generations (Mathworks, MA). […] The normalized sensitivities of each species were integrated over the two hour stimulation, and parameters with normalized, integrated sensitivities greater than an arbitrary threshold of 1000 are listed in Table 11 below. As mentioned above, ErbB4 phosphorylation was not included into the parameter estimation because the cell line studied had barely detectable ErbB4 (see Table 3 below). ErbB4 reactions are parameterized according to ErbB3 reactions.

[7] = target: T2, ErbB2 (Homo sapiens, UniProt P04626); settings: cited from earlier work
[8] = target: T2, ErbB2; assay: Lapatinib rate constants from the literature: ErbB2 (Table 13); format: binding
[9] = target: ErbB3 (Homo sapiens, UniProt P21860); assay: ErbB signaling computational model: HRG ligand binding parameters; settings: model parameter
Source text: as §3, §4, §5

[10] = target: ErbB3 on NCI-ADRr cells (UniProt P21860); assay: cell-based or functional assay

EC50 [1]: 0.021 µM
pErbB1 % stimulation at 5 min relative to maximum [1]: 87.0%
EC50 [3]: 0.23 µM
Molecule: HB-EGF: heparin-binding epidermal growth factor, ErbB ligand
pErbB3 % stimulation at 5 min relative to maximum [2]: 32.0%
pErbB2 % stimulation at 5 min relative to maximum [3]: 94.0%
pAKT % stimulation at 5 min relative to maximum [4]: 20.0%

EC50 [nM] of pErbB1 dose response, NCI-ADRr cells [5]: 21 nM
EC50 [nM] of pErbB2 dose response, NCI-ADRr cells [5]: 230 nM
pAKT, % stimulation at 5 min relative to maximum, NCI-ADRr cells [5]: 20%
pErbB1, % stimulation at 5 min relative to maximum, NCI-ADRr cells [5]: 87%
pErbB2, % stimulation at 5 min relative to maximum, NCI-ADRr cells [5]: 94%
pErbB3, % stimulation at 5 min relative to maximum, NCI-ADRr cells [5]: 32%
Molecule: heparin-binding epidermal growth factor (from UniProt Q99075 63-148) (ligand)

EC50 [nM] of pErbB1 dose response, NCI-ADRr cells [5]: 30 nM
Molecule: transforming growth factor alpha (from UniProt P01135 40-89) (ligand)

EC50 [1]: 0.0057 µM
EC50 [2]: 0.1 µM
kf3: BTC binding to E1 [6]: 5.00 × 10^−11 molecules-1 sec-1
kr3: BTC dissociation from E1 [6]: 0.001 s⁻¹
kf5: BTC binding to E1 heterodimers ([6]; E1 heterodimers): 5.00 × 10^−11 molecules-1 sec-1
kf4: BTC binding to E1 homodimers ([6]; E1 homodimers): 5.00 × 10^−11 molecules-1 sec-1
kf129: BTC binding in the endosome ([6]; endosome): 3.8 molecules-1 sec-1
Molecule: BTC: betacellulin, ErbB ligand which binds primarily to ErbB1

Molecule: CS(=O)(=O)CCNCc1ccc(-c2ccc3ncnc(Nc4ccc(OCc5cccc(F)c5)c(Cl)c4)c3c2)o1 [lapatinib]
Lapatinib inhibitor binding from ErbB2 or 2-3 dimers (on-rate before unit conversion) [7]: Unit conversion calculated as 2.95e3 M^−1s^−1/
krLapatinib_2: Lapatinib inhibitor dissociation to ErbB2 or 2-3 dimers [7]: 3.83e-05 s⁻¹
kfLapatinib_4: Lapatinib inhibitor binding to 2-2 dimers ([8]; 2-2 dimers): 3.00E−12 molecules^−1 sec^−1
kfLapatinib_2: Lapatinib inhibitor binding from ErbB2 or 2-3 dimers ([8]; unit conversion from M^−1s^−1 /(Vmedia * Av/Num_cells)): 1.50E−12 molecules^−1 sec^−1

EC50 [1]: 0.03 µM
Molecule: TGFα: transforming growth factor alpha, ErbB1 binding ligand

EC50 [1]: 0.037 µM
pErbB1 % stimulation at 5 min relative to maximum [1]: 95.0%
EC50 [2]: 0.38 µM
Molecule: AR: amphiregulin, ErbB1 binding ligand
pErbB3 % stimulation at 5 min relative to maximum [2]: 17.0%
pErbB2 % stimulation at 5 min relative to maximum [3]: 54.0%
pAKT % stimulation at 5 min relative to maximum [4]: 28.0%

pErbB1 % stimulation at 5 min relative to maximum [1]: 9.0%
Molecule: Epiregulin: epiregulin, ErbB ligand
pErbB2 % stimulation at 5 min relative to maximum [3]: 18.0%
pAKT % stimulation at 5 min relative to maximum [4]: 11.0%

pErbB1 % stimulation at 5 min relative to maximum [1]: 0.0%
EC50 [2]: 0.0099 µM
EC50 [3]: 0.007 µM
kr1: HRG dissociation from E3 [9]: 0.001 s⁻¹
kf2: HRG binding to E3:E2 dimers ([9]; E3:E2 dimers): 5.00 × 10^−11 molecules-1 sec-1
kr2: HRG dissociation from E3:E2 dimers ([9]; E3:E2 dimers): 0.001 s⁻¹
kf127: HRG binding in the endosome ([9]; endosome): 3.8 molecules-1 sec-1
kf1: HRG binding to E3 or E4 ([9]; unit conversion from 1e5M-1s-1): 5.00 × 10^−11 molecules-1 sec-1
EC50 [4]: 0.0019 µM
Molecule: HRG1-β: heregulin, ErbB receptor ligand which binds to ErbB3 and ErbB4
pErbB3 % stimulation at 5 min relative to maximum [2]: 100.0%
pErbB2 % stimulation at 5 min relative to maximum [3]: 43.0%
pAKT % stimulation at 5 min relative to maximum [4]: 100.0%

EC50 [nM] of pErbB1 dose response, NCI-ADRr cells [5]: 5.7 nM
EC50 [nM] of pErbB3 dose response, NCI-ADRr cells [5]: 100 nM
Molecule: betacellulin (from UniProt P35070 32-111) (ligand)

EC50 [nM] of pAKT dose response, NCI-ADRr cells [10]: 1.9 nM
EC50 [nM] of pErbB2 dose response, NCI-ADRr cells [10]: 7 nM
EC50 [nM] of pErbB3 dose response, NCI-ADRr cells [10]: 9.9 nM
pAKT, % stimulation at 5 min relative to maximum, NCI-ADRr cells [10]: 100%
pErbB1, % stimulation at 5 min relative to maximum, NCI-ADRr cells [10]: 0%
pErbB2, % stimulation at 5 min relative to maximum, NCI-ADRr cells [10]: 43%
pErbB3, % stimulation at 5 min relative to maximum, NCI-ADRr cells [10]: 100%
B1: heregulin HRG1-β (ligand, UniProt Q02297-6 177-241, looked up)
chain: SHLVKCAEKEKTFCVNGGECFMVKDLSNPSRYLCKCPNEFTGDRCQNYVMASFYKHLGIEFMEAE

EC50 [nM] of pErbB1 dose response, NCI-ADRr cells [5]: 37 nM
EC50 [nM] of pErbB3 dose response, NCI-ADRr cells [5]: 380 nM
pAKT, % stimulation at 5 min relative to maximum, NCI-ADRr cells [5]: 28%
pErbB1, % stimulation at 5 min relative to maximum, NCI-ADRr cells [5]: 95%
pErbB2, % stimulation at 5 min relative to maximum, NCI-ADRr cells [5]: 54%
pErbB3, % stimulation at 5 min relative to maximum, NCI-ADRr cells [5]: 17%
B2: amphiregulin (ligand, UniProt P15514 101-198, looked up)
chain: SVRVEQVVKPPQNKTESENTSDKPKRKKKGGKNGKNRRNRKKKNPCNAEFQNFCIHGECKYIEHLEAVTCKCQQEYFGERCGEKSMKTHSMIDSSLSK

pErbB1 % stimulation at 5 min relative to maximum [1]: 12.0%
pAKT, % stimulation at 5 min relative to maximum, NCI-ADRr cells [5]: 11%
pErbB1, % stimulation at 5 min relative to maximum, NCI-ADRr cells [5]: 12%
pErbB2, % stimulation at 5 min relative to maximum, NCI-ADRr cells [5]: 25%
pErbB3, % stimulation at 5 min relative to maximum, NCI-ADRr cells [5]: 3%
B3: Epigen (ligand, UniProt Q6UW88 24-104, looked up)
chain: AVTVTPPITAQQGNWTVNKTEADNIEGPIALKFSHLCLEDHNSYCINGACAFHHELEKAICRCFTGYTGERCEHLTLTSYA
pErbB3 % stimulation at 5 min relative to maximum [2]: 3.0%
pErbB2 % stimulation at 5 min relative to maximum [3]: 25.0%
pAKT % stimulation at 5 min relative to maximum [4]: 11.0%
